# Source: patent publication US20200071404A1
# B1: 6E1 (antibody, from another filing, V domains shown)
# VH: EFQLQQSGPELVKPGASVKVSCKASGYAFTSYNMYWVKQSHGKRLEWIGYIDPYNGGSSYNQKFKGKATLTVDKSSSTAYMHLNNLTSEDSAVYYCARGYNNYKAWFAYWGQGTLVTVSA
# VL: SIVMTQTPKFLLVSAGDRVTITCKASQSVTNDVAWYQQKPGQSPKLLIYYASNRYTGVPDRFTGSGYGTDFTFTISTMQAEDLAVYFCQQDYSSLTFGAGTKLELK
# Molecular target: human CD73 expressed on cells (cancer cell line NCI-H1373 endogenously expressing human CD73; human T cell expressing human CD73) (human) (UniProt P21589)
# Test: cell-based or functional assay
# Chain of human CD73 expressed on cells (cancer cell line NCI-H1373 endogenously expressing human CD73; human T cell expressing human CD73) (human) (P21589 27-549): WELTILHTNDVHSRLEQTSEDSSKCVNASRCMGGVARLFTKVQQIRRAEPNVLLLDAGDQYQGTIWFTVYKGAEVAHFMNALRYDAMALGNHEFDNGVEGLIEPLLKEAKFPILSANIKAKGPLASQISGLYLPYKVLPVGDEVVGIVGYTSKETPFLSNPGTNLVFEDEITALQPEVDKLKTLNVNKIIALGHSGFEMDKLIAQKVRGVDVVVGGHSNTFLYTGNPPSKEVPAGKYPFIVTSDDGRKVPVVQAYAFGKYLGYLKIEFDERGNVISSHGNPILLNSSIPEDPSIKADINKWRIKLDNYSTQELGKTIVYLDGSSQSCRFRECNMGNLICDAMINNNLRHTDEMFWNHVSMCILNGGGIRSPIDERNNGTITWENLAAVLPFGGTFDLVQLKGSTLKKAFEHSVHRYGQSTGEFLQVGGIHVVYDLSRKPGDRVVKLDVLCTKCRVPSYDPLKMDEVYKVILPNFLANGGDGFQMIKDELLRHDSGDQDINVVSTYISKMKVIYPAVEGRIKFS
binder,measurement,value
B1,"EC50 (ng/mL), IFNγ; recovery of AMP-dependently suppressed human T cell functions",132 ng/mL
same,"EC50 (ng/mL), Proliferation of T cells; recovery of AMP-dependently suppressed human T cell functions",357 ng/mL
